T1: human CEACAM6 extracellular domain-SEAP-His protein (human)
T1 chain: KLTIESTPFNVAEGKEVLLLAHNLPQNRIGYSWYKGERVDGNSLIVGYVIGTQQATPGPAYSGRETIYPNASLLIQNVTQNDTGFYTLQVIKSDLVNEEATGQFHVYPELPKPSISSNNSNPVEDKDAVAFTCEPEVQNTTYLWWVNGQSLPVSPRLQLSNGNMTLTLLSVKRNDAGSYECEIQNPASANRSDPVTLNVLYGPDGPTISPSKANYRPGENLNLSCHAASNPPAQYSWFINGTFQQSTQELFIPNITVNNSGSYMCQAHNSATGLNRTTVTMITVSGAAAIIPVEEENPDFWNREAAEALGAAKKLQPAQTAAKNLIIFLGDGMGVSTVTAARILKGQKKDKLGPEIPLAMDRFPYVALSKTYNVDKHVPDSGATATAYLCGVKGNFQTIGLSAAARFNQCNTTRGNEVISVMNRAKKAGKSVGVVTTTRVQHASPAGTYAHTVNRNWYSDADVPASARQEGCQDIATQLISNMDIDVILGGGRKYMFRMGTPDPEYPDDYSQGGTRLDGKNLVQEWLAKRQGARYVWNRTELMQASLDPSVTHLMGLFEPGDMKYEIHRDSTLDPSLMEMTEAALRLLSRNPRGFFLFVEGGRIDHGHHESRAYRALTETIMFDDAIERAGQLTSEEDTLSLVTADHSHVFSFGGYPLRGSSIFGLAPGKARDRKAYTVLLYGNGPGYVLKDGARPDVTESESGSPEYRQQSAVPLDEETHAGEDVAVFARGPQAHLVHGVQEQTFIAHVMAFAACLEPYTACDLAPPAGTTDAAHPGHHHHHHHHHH

T2: human CEACAM6 expressed on Pan02/Pgp-KO/hCEACAM6 cells (human, UniProt P40199 35-320)
T2 construct: also called carcinoembryonic antigen-related cell adhesion molecule 6; CD66c
T2 sequence: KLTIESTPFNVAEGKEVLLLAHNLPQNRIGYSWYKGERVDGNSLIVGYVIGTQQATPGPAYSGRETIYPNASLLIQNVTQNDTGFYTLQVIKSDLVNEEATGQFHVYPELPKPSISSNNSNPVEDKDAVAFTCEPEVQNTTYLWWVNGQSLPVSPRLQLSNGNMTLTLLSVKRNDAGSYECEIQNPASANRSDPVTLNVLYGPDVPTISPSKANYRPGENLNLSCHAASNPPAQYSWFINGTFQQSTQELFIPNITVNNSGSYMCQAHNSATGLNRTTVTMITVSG

B1: human antibody fragment (scFv) specifically binding to human CEACAM6, from which antibody A was designed (scFv, V domains shown)
VH: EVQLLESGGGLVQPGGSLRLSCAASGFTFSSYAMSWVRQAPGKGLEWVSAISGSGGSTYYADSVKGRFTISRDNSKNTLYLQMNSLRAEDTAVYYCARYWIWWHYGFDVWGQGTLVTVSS
VL: SSELTQDPAVSVALGQTVRITCQGDSLRSYYASWYQQKPGQAPVLVIYGKNNRPSGIPDRFSGSSSGNTASLTITGAQAEDEADYYCQSYYSSSHYVVFGGGTKLTVL
notes: Tested as a single-chain FLAG-tagged scFv in E. coli culture supernatant; also called FLAG-tagged scFv
B2: antibody A (human anti-CEACAM6_#84.7 monoclonal antibody) (antibody, human IgG1, lambda, V domains shown)
VH: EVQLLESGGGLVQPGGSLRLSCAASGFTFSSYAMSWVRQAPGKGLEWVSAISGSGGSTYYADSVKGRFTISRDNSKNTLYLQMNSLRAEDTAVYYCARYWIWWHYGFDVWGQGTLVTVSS
VL: SSELTQDPAVSVALGQTVRITCQGDSLRSYYASWYQQKPGQAPVLVIYGKNNRPSGIPDRFSGSSSGNTASLTITGAQAEDEADYYCQSYYSSSHYVVFGGGTKLTVLG
notes: The heavy chain constant region is human IgG1/2m: IgG1 CH1 and hinge, IgG2 CH2 and CH3 with V234A and G237A (Eu numbering); The light chain constant region is human Ig lambda

Columns and labels:
[1] = target: T1, human CEACAM6 extracellular …; assay: ELISA: FLAG-tagged scFv from E. coli supernatant captured on anti-FLAG antibody, 20 nM antigen, HRP-labeled anti-His antibody detection, absorbance at 450 nm
Description: (§1) After the second panning procedure, a single colony from the concentrated phage-infected TG1 cells was transferred to culture medium on a 96-well plate. IPTG was added to induce expression of the FLAG-tagged scFv, and vibration culture was carried out overnight at 30° C. The TG1 cells were spinned down and the scFv-containing E. coli culture supernatant was used to pickup the wells that were reactive with human CEACAM6.
(§2) Reactivity with human CEACAM6 was evaluated by ELISA according to the following procedure, using either human CEACAM6 extracellular domain-SEAP-His protein or human CEACAM6 extracellular domain-MBP-His protein. The wells of a 96-well plate (Nunc) were coated with anti-FLAG antibody (Sigma). After incubation overnight at 4° C., the wells were blocked with 2% skim milk (BD) for 2 hours at room temperature. After rinsing 3 times with 0.02% Tween20/PBS (Nacalai Tesque, Inc.), human CEACAM6 extracellular domain-SEAP-His protein or human CEACAM6 extracellular domain-MBP-His protein (final concentration: 20 nM) and E. coli culture supernatant containing scFv were added to each well and incubation was continued for 2 hours at room temperature. […] An equivalent of stopping solution (1N H₂SO₄, FujiFilm Wako Pure) was added to each well, and the absorbance at 450 nm was read off using a microplate reader (Thermo Scientific). […]

[2] = target: human CEACAM6 extracellular domain-MBP-His protein (human); assay: as above
Description: as §1, §2

[3] = target: T2, human CEACAM6 expressed on …; assay: flow cytometry sorting ([..] II) of Pan02 cells transfected with human CEACAM6
From the text: The mouse pancreatic cancer cell line Pan02 (National Institutes of Health) was transfected with recombinant Cas9 protein (Alt-R S.p. HiFi Cas9 V3, Integrated DNA Technologies), and mouse Abcb1a and single guided RNA (Aft-R CRISPR sgRNA, Integrated DNA Technologies) for Abcb1b, using a NEPA21 Super Electroporator (Nepa Gene). The obtained cells were further transfected with human CEACAM6 using pLV[Exp]-Puro-EFS lentiviral vector (VectorBuilder) and MISSION Lentiviral Packaging Mix (Sigma-Aldrich). […] The established cells were designated as cell line Pan02/Pgp-KO/hCEACAM6, and were maintenance cultured in a 5% CO₂ incubator (37° C.) using RPMI (FujiFilm-Wako Pure Chemical Industries) containing 10% fetal bovine serum (FBS: SIGMA 173012) and penicillin/streptomycin (FujiFilm-Wako Pure Chemical Industries) (hereunder referred to simply as “culture medium”).

| Binder | binding result [1] | binding result [2] | binding result [3] |
| --- | --- | --- | --- |
| B1 | binds | binds |  |
| B2 |  |  | binds |
